Measurements as given in US6867012B2, “Determination method of biological component and reagent kit used therefor” (Toyo Boseki Kabushiki Kaisha, priority 2000, dated 2005).

Test: Activity measurement of betaine-homocysteine methyltransferase (methionine produced, absorbance at 520 nm)
Type: biochemical
Details: 37° C., 1 h, pH 7.5; 1 U = 1 μmole of methionine per 1 h
Procedure: • reagent A 50 mM potassium phosphate buffer (pH 7.5) • reagent B 100 mM DL-homocysteine solution (dissolved in reagent A) • reagent C 100 mM betaine (dissolved in reagent A) • reagent D 0.2% aqueous pentacyanoanmineiron(III) sodium solution • reagent E acetic acid • reagent F 10% aqueous sodium nitrite solution <Measurement Conditions>
After the completion of the reaction, reagent D (5 ml) is added and the mixture is stirred. After standing for 1 min, 1 ml each of reagent E and reagent F were added in this order and the mixture is stirred. After standing for 30 min at room temperature, absorbance at 520 nm is measured. Using L-methionine dissolved in reagent A instead of the enzyme solution, absorbance is measured in the same manner and a standard curve is drawn, from which the amount of methionine produced by the enzymatic reaction is measured.

B1: betaine-homocysteine methyltransferase: Human-derived enzyme (EC 2.1.1.5) expressed from human liver cDNA in E. coli BL21(DE3) and purified (protein, UniProt Q93088 1-406, looked up)
Betaine--homocysteine …: MPPVGGKKAKKGILERLNAGEIVIGDGGFVFALEKRGYVKAGPWTPEAAVEHPEAVRQLHREFLRAGSNVMQTFTFYASEDKLENRGNYVLEKISGQEVNEAACDIARQVADEGDALVAGGVSQTPSYLSCKSETEVKKVFLQQLEVFMKKNVDFLIAEYFEHVEEAVWAVETLIASGKPVAATMCIGPEGDLHGVPPGECAVRLVKAGASIIGVNCHFDPTISLKTVKLMKEGLEAARLKAHLMSQPLAYHTPDCNKQGFIDLPEFPFGLEPRVATRWDIQKYAREAYNLGVRYIGGCCGFEPYHIRAIAEELAPERGFLPPASEKHGSWGSGLDMHTKPWVRARARKEYWENLRIASGRPYNPSMSKPDGWGVTKGTAELMQQKEATTEQQLKELFEKQKFKSQ
With B1 as the molecule, how does the “specific activity of purified enzyme standard product” value read?
Its value is “about 2.1 U/mg protein”.
